In patent US20150315279A1 (CELLERANT THERAPEUTICS, published 2015):
One block for each binder: values may come before it. No end group written: not given here.

Experiments:
[1] = biological target: T1, soluble (secreted) form of IL1RAP in normal human serum (human, UniProt Q9NPH3 21-350); test: ELISA, antigen captured from human serum by goat anti-human IL1RAP polyclonal, serially diluted antibody
T1 construct: Natural protein captured from human serum; also called IL1RAP from NHS; natural secreted form of IL1RAP in human serum
T1 sequence: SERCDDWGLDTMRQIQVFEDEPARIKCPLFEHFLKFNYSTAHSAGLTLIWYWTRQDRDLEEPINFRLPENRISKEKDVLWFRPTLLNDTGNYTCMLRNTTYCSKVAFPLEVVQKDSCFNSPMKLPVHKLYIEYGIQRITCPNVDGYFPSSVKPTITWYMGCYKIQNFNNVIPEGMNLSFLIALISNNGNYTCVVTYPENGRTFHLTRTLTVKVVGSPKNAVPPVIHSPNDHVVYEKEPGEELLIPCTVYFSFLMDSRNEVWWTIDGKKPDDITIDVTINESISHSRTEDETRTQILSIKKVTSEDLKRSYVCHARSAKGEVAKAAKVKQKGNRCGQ
Text: (§1) The binding specificity of purified 4B6 was confirmed by ELISA assays described below. Wells of 96-well plate were coated with goat-anti-human IL1RAP polyclonal antibodies to capture various forms of IL1RAP. Forms of IL1RAP captured were (a) ECD form of IL1RAP, (b) the secreted form IL1RAP, and (c) human serum containing the secreted form of IL1RAP. Each captured form was then reacted with serially diluted tested antibody 4B6, control antibody 12G6, or a mouse IgG1 isotype control antibody. After incubation and washing, wells were reacted with secondary donkey-anti-mouse-HRP polyclonal antibodies. Color was developed with TMB substrate after incubation and PBS washes.

[2] = biological target: T2, secreted form of IL1RAP (recombinant) (human, UniProt Q9NPH3 21-350); test: ELISA, antigen captured by goat anti-human IL1RAP polyclonal, serially diluted antibody
T2 construct: also called recombinant form of the secreted IL1RAP; soluble IL1RAP
T2 sequence: T1 sequence
Text: as §1

[3] = biological target: T3, extracellular domain (ECD) form of IL1RAP (human, UniProt Q9NPH3 21-367); test: ELISA, IL1RAP captured by goat anti-human IL1RAP polyclonal, 1F5 at 1 µg/ml
T3 construct: also called ECD of IL1RAP; ECD IL1RAP
T3 sequence: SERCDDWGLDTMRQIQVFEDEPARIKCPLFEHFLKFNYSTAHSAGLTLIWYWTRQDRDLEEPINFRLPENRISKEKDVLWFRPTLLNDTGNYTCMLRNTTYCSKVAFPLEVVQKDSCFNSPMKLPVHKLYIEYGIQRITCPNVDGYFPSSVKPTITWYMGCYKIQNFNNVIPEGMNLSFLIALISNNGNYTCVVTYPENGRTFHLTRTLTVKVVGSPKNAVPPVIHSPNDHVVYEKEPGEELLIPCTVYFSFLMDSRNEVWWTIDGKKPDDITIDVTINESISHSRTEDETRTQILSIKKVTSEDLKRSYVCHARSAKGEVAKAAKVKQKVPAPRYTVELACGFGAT
Method: Wells of a 96-well ELISA plate were coated with goat-anti-human IL1RAP polyclonal at 0.5 μg/ml and incubated overnight at 2-8° C. The coated wells were washed with PBS with 0.05% Tween-20, then blocked with 1% BSA. IL1RAP was added into the wells at 0.5, 1, or 2 μg/ml followed by an incubation and a 3×PBS wash. After the 3×PBS wash, antibody 1F5 was added to the wells at 1 μg/ml followed by an incubation and a 3×PBS wash. After the 3×PBS wash, donkey-anti-mouse-HRP was added to the wells at a 1:50,000 dilution followed by an incubation and a 3×PBS wash. Color was developed with TMB substrate. The reaction was quenched with acid and the plate was read at 450 nm.

[4] = biological target: T1, soluble (secreted) form of IL1RAP in …; test: sandwich ELISA with normal human serum
[5] = biological target: T4, 12-mer peptide VPAPRYTVELAC (human); test: ELISA, peptide adsorbed on the plate
T4 construct: also called unconjugated peptide
T4 peptide: VPAPRYTVELAC
Method: Peptide was conjugated to Keyhole Limpet Hemocyanin (KLH) using methods known in the art. Unconjugated peptide, KLH-peptide, and KLH were then adsorbed onto different wells of a MAXIBIND 96-well ELISA plate, which was then blocked with 1% BSA. Anti-IL1RAP antibody 1F5 was then added to the wells followed by an incubation and a wash. After the wash, donkey-anti-mouse-HRP was added to the wells at a 1:50,000 dilution followed by an incubation and a wash. Color was developed with TMB substrate. The reaction was quenched with acid and the plate was read at 450 nm.

[6] = biological target: T5, human interleukin 1 receptor accessory protein, membrane-bound (receptor) form on cells (human, UniProt Q9NPH3 21-570); test: flow cytometry on BMMC or PBMC of AML patients, 1F5 at 2 µg/mL
T5 construct: also called IL1RAP; receptor IL1RAP
T5 sequence: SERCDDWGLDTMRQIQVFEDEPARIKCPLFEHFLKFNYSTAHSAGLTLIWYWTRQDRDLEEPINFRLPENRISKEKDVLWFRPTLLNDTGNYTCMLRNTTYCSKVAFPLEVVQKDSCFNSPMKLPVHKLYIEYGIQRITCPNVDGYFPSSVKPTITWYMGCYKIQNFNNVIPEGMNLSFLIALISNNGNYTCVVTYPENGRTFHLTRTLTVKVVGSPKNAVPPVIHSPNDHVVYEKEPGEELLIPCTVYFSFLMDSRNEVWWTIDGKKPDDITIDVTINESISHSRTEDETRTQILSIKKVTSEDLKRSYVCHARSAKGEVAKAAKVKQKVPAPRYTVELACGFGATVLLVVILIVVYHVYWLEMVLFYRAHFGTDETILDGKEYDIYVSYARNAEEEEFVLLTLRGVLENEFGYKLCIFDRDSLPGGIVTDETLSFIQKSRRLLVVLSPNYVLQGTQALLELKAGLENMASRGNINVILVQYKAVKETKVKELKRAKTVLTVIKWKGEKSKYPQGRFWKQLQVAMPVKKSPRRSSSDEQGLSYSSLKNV
Method: Bone Marrow-Derived […] (BMMC) or Peripheral Blood Mononuclear Cells (PBMC) were isolated by Ficoll separation (GE Healthcare) from bone marrow aspirate or whole blood respectively of AML patients. Cells were resuspended in staining solution (HBSS, 1% BSA, 1 mM EDTA) to 2×10⁶ cells/mL and blocked with mouse and rat IgG prior to staining. Unconjugated IgG2a or 1F5 antibodies were added to each tube to a final concentration of 2 μg/mL. 50 μL of the cell solution was added to each tube and incubated on ice for 30 min (each stage of incubation was 30 min). Cells were washed with staining solution and resuspended in 100 μL of staining solution with a […] concentration of anti-mouse-PE secondary. Cells were washed with staining solution and resuspended in 100 μL of staining solution with 5 μL each of CD34-FITC, CD45-APC and CD38-APC (BD). Cells were washed with staining solution and resuspended in 200 μL. Cells were immediately applied to flow cytometry for analysis.

peptide AC Pep-1 = biological target: T6, peptide AC Pep-1 (human); test: ELISA of hybridoma supernatant on peptide AC Pep-1
T6 peptide: VKQKVPAPRYTVELAC

[7] = biological target: T7, ACPep-1 conjugated to KLH (human, also: conjugated to KLH, site and chemistry not given here); test: ELISA, antigen coated at 2 ug/ml, antibody at 20 ug/ml
T7 construct: Peptide-carrier conjugate; also called ACPep-1-KLH; ACPep-1 conjugated KLH; not shown: Keyhole limpet hemocyanin (KLH) carrier
T7 peptide: VKQKVPAPRYTVELAC
Method: (§2) An ELISA was performed to further determine the specificity of monoclonal antibodies 4G9, 12F1, and 42E1. Wells of 96-well plate were coated with the secreted form of IL1RAP, ECD form of IL1RAP, ACPep-1 conjugated to KLH, or unconjugated KLH at 2 ug/ml overnight at 2-8° C. The coated wells were washed with PBS with 0.05% Tween-20, and then blocked with 1% BSA. Purified test antibodies 4G9, 12F1 and 42E1 were diluted to 20 ug/ml, added to wells coated with various proteins, and incubated at RT for 1 hr. Antibody 12G6, which binds to both the ECD and the secreted form of IL1RAP, was added as a control. Mouse IgG1 was also added as an isotype control. After incubation and PBS washes, donkey anti-mouse-HRP polyclonal antibodies were added. Color was developed with TMB substrate after incubation and PBS washes. The reaction was quenched with acid and the plate was read at 450 nm.

[8] = biological target: T2, secreted form of IL1RAP (recombinant); test: ELISA, antigen coated at 2 ug/ml
Method: as §2

- binding result [1]: no binding
- binding result [2]: no binding
B1: monoclonal antibody 4B6 (antibody, V domains shown)
VH: EVKLVESGGGLVKPGGSLKLSCAASGFTFRTYAMSWVRQTPEKRLEWVASISSRGRIYYPDSVKGRFTISRDNARNILYLQMSSLRSEDTAMYYCARDGDYGSSYDYWGQGTTLTVSS
VL: DIQMTQSPSSLSASLGERVSLTCRASQDIGSSLNWLQQEPDGTIKRLIYATSSLDSGVPKRFSGSRSGSDYSLTISSLESEDFVDYYCLQYASSPWTFGGGTKLEIK

- binding result [3]: binds
- binding result [4]: no binding
- binding result [5]: binds
- binding result [6]: binds
- binding result (peptide AC Pep-1): binds
B2: anti-receptor IL1RAP antibody clone 1F5 (antibody, V domains shown)
VH: EVKLVESGGGLVKPGASLKLSCAASGFTFSNYGMSWVRQTSDKRLEWVASISSGGGSTYYPDNVKGRFTISRENAKNTLYLQMSSLKSEDTALYYCARVLPGRWAMDYWGQGSSVTVSS
VL: DVVMTQTPLSLPVSLGDQASISCRSSQSLVHINGNTYLHWYLQKPGQSPKLLIYKVSNRFSGVPDRFSGSGSGTDFTLKISRVEAEDLGVYFCSQSTHVPWTFGGGTKLEIK
notes: Mouse monoclonal antibody from a hybridoma (A/J mice immunised with AC Pep-1-KLH); IgG2a was used as its control in flow cytometry; Hybridoma supernatants were used in some assays; also called anti-IL1RAP antibody 1F5; 1F5 supernatants

- binding result [7]: binds
- binding result [8]: no binding (tested: 20 ug/ml)
B3: monoclonal antibody 4G9 (antibody, V domains shown)
VH: QVQLQQSGTELVRPGASVKLSCKASGYTFTDYEMHWVKQTPVHGLEWIGAIDPGTGGIAYNQKFKGKATLTADKSSSTAYMELRSLTSEDSAVYYCTLYDYDLAYWGQGTLVTVSA
VL: DVLMTQTPLSLPVSLGDQASISCRSSQSIVHSNGNTYLEWFLQKPGQSPKLLIYTVSNRFSGVPDRFSGSGSGTDFTLKISRVEAEDLGVYYCFQGSHVPPTFGGGTKLEIK
